This is an account of results in patent publication US20210388097A1 (SORRENTO THERAPEUTICS, published 2021).

A word on the Kd: it is the concentration at which binding is half-saturated. Broadly, the koff is a measure of how fast the partners let go of each other. Read a low koff as a long-lived complex. The term kon denotes the rate constant with which the complex forms.

Changes are numbered by the printed parent chain.

The target in assay [1] is T1, his-tagged human BCMA protein (ACROBiosystems, catalog # BCA-H522y-100 ug) (human, UniProt Q02223 1-54).
T1 construct: limits of the bought construct are not otherwise stated; also called recombinant his-tagged human BCMA; not shown: his tag of the bought protein
T1 sequence: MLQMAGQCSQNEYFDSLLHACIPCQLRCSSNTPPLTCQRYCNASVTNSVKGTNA
The assay can be described thus: SPR (Biacore T200, 25 C), antibody captured on anti-human Fc, his-tagged human BCMA as analyte, 1:1 binding model. As to the method:
(§1) Binding kinetics of anti-BCMA antibodies with his-tagged human BCMA protein (ACROBiosystems, catalog # BCA-H522y-100 ug, UniProt Q02223-1, SEQ ID NO:92) was measured using surface plasmon resonance (SPR). Kinetic interactions between the antibodies and his-tagged BCMA proteins were measured at 25° C. using Biacore T200 surface plasmon resonance (GE Healthcare). Anti-human fragment crystallizable region (Fc region) antibody was immobilized on a CM5 sensor chip to approximately 8000 resonance units (RU) using standard N-hydroxysuccinimide/N-Ethyl-N′-(3-dimethylaminopropyl) carbodiimide hydrochloride (NHS/EDC) coupling methodology. The anti-BCMA antibody (2 μg/mL) was captured for 60 seconds at a flow rate of 10 μL/minute. The his-tagged BCMA protein was run at six different dilutions of 3.12, 6.25, 12.5, 25, 50, 100 and 200 nM, in a running buffer of 0.01 M HEPES pH 7.4, 0.15 M NaCl, 3 mM EDTA, 0.05% v/v Surfactant P20 (HBS-EP+). The 25 nM BCMA protein run was measured two times. All measurements were conducted in HBS-EP+ buffer with a flow rate of 30 μL/minute. A 1:1 (Langmuir) binding model was used to fit the data. The SPR sensorgrams of anti-BCMA antibodies BCA7, GSK J6M0, BC4C9 and BC5C4 are shown in FIGS. 1, 2, 3 and 4, respectively, and their corresponding binding kinetics are listed in Table 3.
(SPR reads the build-up and loss of mass on a sensor chip optically.)

Assay [2] concerns the target T2, Wild type human BCMA protein-mouse Fc (human).
T2 construct: also called wild type human BCMA-mouse Fc; wild type BCMA protein
T2 chain: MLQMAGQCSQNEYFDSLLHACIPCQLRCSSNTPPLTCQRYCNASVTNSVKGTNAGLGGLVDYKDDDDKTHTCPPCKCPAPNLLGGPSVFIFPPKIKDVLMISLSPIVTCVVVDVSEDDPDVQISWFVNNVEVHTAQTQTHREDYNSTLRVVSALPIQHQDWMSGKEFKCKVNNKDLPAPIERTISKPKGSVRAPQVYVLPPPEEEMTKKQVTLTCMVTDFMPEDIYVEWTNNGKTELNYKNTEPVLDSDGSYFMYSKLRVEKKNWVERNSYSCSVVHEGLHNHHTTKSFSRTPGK
In words: bio-layer interferometry, antibody (100 nM) loaded on AR2G sensor, BCMA-mouse Fc in solution. As for the experimental part: (§2) The results of the protein-protein binding assays described in Example 8 were used to design an epitope mapping assay using bio-layer interferometry. Various anti-BCMA antibodies (2C5, 2E1, 4C9, 6G8, Bluebird C11D5, GSK J6M0, or isotype control) (100 nM) were loaded onto AR2G sensors and reacted with buffer or one of three types of human BCMA proteins including: including: wild type human BCMA-mouse Fc (SEQ ID NO:5), mutant-1 human BCMA-mouse Fc (double mutation 17G-18G; SEQ ID NO:6), or mutant-2 human BCMA-mouse Fc (mutation del32-35G; SEQ ID NO:7).
(BLI is a label-free optical method that tracks binding on a fibre tip over time.)

In assay [3] the target is T3, Mutant-2 human BCMA protein-mouse Fc (human).
T3 construct: also called mutant-2 human BCMA-mouse Fc (del32-35G); mutant-2 BCMA protein
T3 chain: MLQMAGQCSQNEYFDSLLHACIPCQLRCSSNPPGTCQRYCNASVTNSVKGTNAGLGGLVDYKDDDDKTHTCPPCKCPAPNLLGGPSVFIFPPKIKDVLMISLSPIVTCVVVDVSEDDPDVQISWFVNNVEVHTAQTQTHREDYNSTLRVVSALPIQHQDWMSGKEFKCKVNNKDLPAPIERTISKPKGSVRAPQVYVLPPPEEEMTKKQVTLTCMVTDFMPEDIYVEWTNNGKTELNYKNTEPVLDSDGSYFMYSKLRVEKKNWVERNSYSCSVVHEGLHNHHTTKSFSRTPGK
Described as above. As for the experimental part:
as §2

Assay [4] deals with T1, his-tagged human BCMA protein …. In words: SPR (Biacore T200), antibody captured on anti-human Fc chip, his-tagged human BCMA as analyte. As for the experimental part:
as §1, with “The SPR sensorgrams of anti-BCMA antibodies BCA7, GSK J6M0, BC4C9 and BC5C4 are shown in FIGS. 1, 2, 3 and 4, respectively, and their corresponding binding kinetics are listed in Table 3.” left out
(§3) Cross reactivity of two of the anti-BCMA antibodies, BCA7-2C5 and BCA7-2E1, with his-tagged human, cynomolgus or mouse BCMA protein were analyzed by SPR in the manner as described above. […]

For assay [5], the target named is T4, his-tagged mouse BCMA protein (ACROBiosystems, catalog # BCA-M52H3) (mouse, UniProt O88472 1-49).
T4 construct: Bought protein; not shown: his tag
T4 chain (looked up): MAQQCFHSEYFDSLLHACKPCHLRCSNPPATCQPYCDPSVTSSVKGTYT
The assay can be described thus: SPR (Biacore T200), antibody captured on anti-human Fc chip, his-tagged mouse BCMA as analyte. As for the experimental part:
as §1, with “The SPR sensorgrams of anti-BCMA antibodies BCA7, GSK J6M0, BC4C9 and BC5C4 are shown in FIGS. 1, 2, 3 and 4, respectively, and their corresponding binding kinetics are listed in Table 3.” left out
as §3

Assay [6] addresses T5, his-tagged cynomolgus BCMA protein (ACROBiosystems, catalog # BCA-052H7) (cynomolgus, UniProt A0A2K5UD97 1-53).
T5 construct: Bought protein; also called cyno BCMA; not shown: his tag
In words: SPR (Biacore T200), antibody captured on anti-human Fc chip, his-tagged cynomolgus BCMA as analyte. As for the experimental part: as §1, with “The SPR sensorgrams of anti-BCMA antibodies BCA7, GSK J6M0, BC4C9 and BC5C4 are shown in FIGS. 1, 2, 3 and 4, respectively, and their corresponding binding kinetics are listed in Table 3.” left out
as §3

Assay [7] deals with T1, his-tagged human BCMA protein …. In words: SPR (Biacore T200), antibody captured on anti-human Fc, his-tagged human BCMA as analyte; fit with ka1/kd1/ka2/kd2 (model not named). As to the method: as §1, with “A 1:1 (Langmuir) binding model was used to fit the data.” left out
Binding kinetics of optimized anti-BCMA antibodies BCA7-2C5, BCA7-2D11, BCA7-2G2, BCA7-2E1, BCA7-2D8 and BCA7-2E8, with his-tagged human BCMA protein (ACROBiosystems, catalog # BCA-H522y-100 ug), were analyzed in the manner as described above.

T5 sequence (A0A2K5UD97 entry or part of it): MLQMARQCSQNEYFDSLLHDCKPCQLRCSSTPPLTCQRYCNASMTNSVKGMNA

B1: BC5C4 antibody (antibody, V domains shown)
VH: EVQLVESGGGLVQPGRSLRLSCAASGFTFDDYAMHWVRQAPGKGLEWVSGISWNSGSIGYADSVKGRFTISRDNAKNSLYLQMNSLRAEDTAVYYCATIDNVAFHSWGQGTLVTVSS
VL: QSVLTQPPSASGSPGQSVTISCTGTSSDIGGYNYVSWYQQHPGKAPKLIIYEVSNRPSGVSDRFSGSKSGNTASLTISGLQAEDEADYYCSSYTDNGALVVFGGGTKLTVL
notes: also called CD5C4
In assay [1], B1 registered a Kd of 9.27 nM, a koff of 0.033 s⁻¹ and a kon of 3.56e+06 M⁻¹ s⁻¹.

B2: BCA7-2E1 antibody (antibody, V domains shown)
VH: EVQLVESGGGLVKPGGSLRLSCAASGFTSSTAWMSWVRQAPGKGLEWVGRIKSKSDGGTTDYAAPVKGRFTISRDDSKNTLFLQMNSLKTEDTAVYYCAKGGGTYGYWGQGTTVTVSS
VL: QSALTQPASVSGSPGQSVTISCTGTSSDGGGHTYVSWYQQHPGKAPKLMIYDVSNRPSWVSNRFSGSKSGNTASLTISGLQAEDEADYYCGSYTSSGSYVFGTGTKLTVL
notes: also called BCA-2E1
B2: in assay [2], the binding result is “binds”. In addition, in assay [3], the binding result is “binds”. In assay [4], the Kd came to 20.4 nM. Further, binding in assay [5] was put at a Kd of 1000 nM. The same molecule gave a Kd in assay [6] of 174 nM. Besides, in assay [7], the Kd is 20.4 nM, the ka1 came to 2.51e+06 M⁻¹ s⁻¹, the ka2 came to 0.0018 s⁻¹ and the kd1 came out at 0.151 s⁻¹. Moreover, the kd2 in assay [7] is 0.000929 s⁻¹.

B3: BCA7-2D11 antibody (antibody, V domains shown)
VH: B2 VH
VL: B2 VL with Q1S, S2Y, A3E, D28V, G29V, T33D, W59G, L107V
In assay [7], B3 returned a Kd of 21.9 nM, a ka1 of 1.87e+06 M⁻¹ s⁻¹, a ka2 of 0.00381 s⁻¹ and a kd1 of 0.261 s⁻¹. The molecule also displayed a kd2 in assay [7] of 0.00071 s⁻¹.

B4: BCA7-2G2 antibody (antibody, V domains shown)
VH: B2 VH
VL: B2 VL with A3V, D28S, G29V, H32R, T33Q, W59G
As to B4, in assay [7], binding was characterised by a dissociation constant (Kd) of 53.7 nM, the ka1 came out at 32100 M⁻¹ s⁻¹, the ka2 was determined as 0.00143 s⁻¹ and the kd1 is 0.00376 s⁻¹. For the same molecule, the kd2 in assay [7] is 0.00121 s⁻¹.

B5: BCA7-2E8 antibody (antibody, V domains shown)
VH: B2 VH
VL: B2 VL with A3V, G29V, H32Y, T33N, W59G, Y93L, T94R, S96N, S98D, K106T
For the molecule B5, in assay [7], the Kd was 155 nM, the ka1 worked out at 48700 M⁻¹ s⁻¹, the ka2 is 0.0119 s⁻¹ and the kd1 came out at 0.0202 s⁻¹. The same molecule came in with a kd2 in assay [7] of 0.00707 s⁻¹.

B6: BCA7-2D8 antibody (antibody, V domains shown)
VH: B2 VH
VL: B2 VL with A3V, D28S, G29I, G31D, H32S, T33Y, W59G, K106T
On to B6, for which, in assay [7], the Kd came out at 83.8 nM, the ka1 is 2.43e+06 M⁻¹ s⁻¹, the ka2 came to 0.0113 s⁻¹ and the kd1 worked out at 1.09 s⁻¹. In assay [7], this molecule showed a kd2 of 0.0026 s⁻¹.

B7: BC4C9 antibody (antibody, V domains shown)
VH: EVQLVQSGAEVKKPGASVKVSCKAFGYTFTSYDINWVRQATGQGLEWMGWMNPNSGNTGYAQKFQGRVTMTRNTSISTAYMELSSLRSEDTAVYYCASGLGEWGQGTLVTVSS
VL: QSVLTQPASVSGSPGQSVTISCTGTSSDVGGYNYVSWYQQHPGKAPKLMIYDVSKRPSGVSNRFSGSKSGNTASLTISGLQAEDEADYYCISYSSSSTFYVFGTGTKVTVL
For B7, in assay [2], the binding result is listed as “binds”. Moreover, the binding result in assay [3] was “binds”. In assay [1], this molecule registered a Kd of 27.3 nM, an off-rate (koff) of 0.000567 s⁻¹ and an on-rate constant (kon) of 20800 M⁻¹ s⁻¹.
